For one sequence, Kd results are on record in US20160243251.

Holding throughout (test): FP
Data set [1] relates to KRRRC(-TMR)-NH2 (LKLRLRLRLC(-TMR)-NH2) (synthetic). Particulars: 2 mM NaCl, pH 7.4; p253 text gives 46 ± 9.
Data set [2] deals with T1, TMR-(CH2)5-DKDRDRDR-NH2 (synthetic).
T1 sequence: KRRR
Particulars: 2 mM NaCl, pH 7.4.

Data set [3] has as its system T2, TMR-(CH2)5-KRRR-NH2 (L) (synthetic).
T2 sequence: KRRR
Particulars: 2 mM NaCl, pH 7.4.

Data set [4] has as its system T3, TMR-DKDRDRDR-NH2 (synthetic).
T3 sequence: KRRR
Particulars: 2 mM NaCl, pH 7.4.

Data set [5] deals with TMR-DRDRDRDK-NH2 (synthetic). Particulars: 2 mM NaCl, pH 7.4.
Data set [6] has as its system TMR-KKKK-NH2 (TMR-LKLKLKLK-NH2) (synthetic). Particulars: 2 mM NaCl, pH 7.4.
In data set [7] the test system is T4, TMR-KRRR (TMR-LKLRLRLR, C-terminal carboxylate) (synthetic).
T4 sequence: KRRR
Particulars: CITED Xiong et al; pH 7.4; DNA assumed same 30-mer; cited from earlier work.

Data set [8] has as its system T5, TMR-KRRR-NH2 (TMR-LKLRLRLR-NH2) (synthetic).
T5 sequence: KRRR
Particulars: 2 mM NaCl, pH 7.4.

The subject of data set [9] is T6, TMR-LKDRLRDR-NH2 (synthetic).
T6 sequence: KRRR
Particulars: 2 mM NaCl, pH 7.4.

For data set [10], the system named is TMR-LRL-LRL-LRL-LRL-NH2 (tetra L-homo-arginine) (synthetic). Particulars: 2 mM NaCl, pH 7.4.
Data set [11] deals with TMR-LRS-LRS-LRS-LRS-NH2 (tetra L-2-amino-3-guanidinopropionic acid) (synthetic). Particulars: 2 mM NaCl, pH 7.4.
Data set [12] deals with TMR-RRRK-NH2 (TMR-LRLRLRLK-NH2) (synthetic). Particulars: 2 mM NaCl, pH 7.4.
Data set [13] deals with TMR-RRRR (TMR-LRLRLRLR, C-terminal carboxylate) (synthetic). Particulars: CITED Xiong et al; pH 7.4; DNA assumed same 30-mer; cited from earlier work.
The subject of data set [14] is TMR-RRRR-NH2 (TMR-LRLRLRLR-NH2) (synthetic). Particulars: 2 mM NaCl, pH 7.4.
In data set [15] the test system is TMR-β3Kβ3Rβ3Rβ3R-NH2 (synthetic). Particulars: 2 mM NaCl, pH 7.4.
In data set [16] the test system is TMR-β3Rβ3Rβ3Rβ3K-NH2 (synthetic). Particulars: 2 mM NaCl, pH 7.4.

On to “GACGACTAGGACGACGACGAGGATGACGAC (double strand) [30-mer dsDNA]”, for which the Kd in data set [1] is 54 nM; in [2], 47 nM; in data set [3] it was 46 nM; in data set [4] it was 44 nM; in data set [5] it was 37 nM; in data set [6] it was 53 nM. In addition, the Kd in data set [7] was 197 nM; in [8] it was 46 nM; in data set [9], 36 nM; in [10], 13 nM; in data set [11], 129 nM; in [12], 28 nM. The Kd in data set [13] was 236 nM; in [14], 31 nM; in [15] it was 41 nM; in data set [16], 49 nM.

For orientation: Kd means a measure of binding affinity in units of concentration.
